Laboratory results taken from US20230093708A1, “PROTEIN NANOPARTICLE DESIGN AND APPLICATION” (Duke University, priority 2020, published 2023).

Legend:
[1] = Cryo-TEM micelle core size, inter-core spacing and aspect ratio; format: physicochemical; conditions: for Spacing (nm): inter-core spacing; for Spacing (nm) / Core radius (nm): mean ± standard deviation
Experimental: Using the data from FIG. 18, particularly the longest straight line of an individual particle and a corresponding perpendicular measurement were made to describe the aspect ratio of particles observed.
Cryo-TEM experiments were performed at Duke University's Shared Materials Instrumentation Facility (Durham, N.C.). Lacey holey carbon grids (Ted Pella, Redding, Calif.) were glow discharged in a PELCO EasiGlow Cleaning System (Ted Pella, Redding, Calif.). A 3 μL drop (10 μM RLPn-ELP80) was deposited onto the grid, blotted for 3 s with an offset of −3 mm, and vitrified in liquid ethane using the Vitrobot Mark III (FEI, Eindhoven, Netherlands). Prior to vitrification, the sample chamber was maintained at 15° C. and 100% relative humidity to prevent sample evaporation. Grids were transferred to a Gatan 626 cryoholder (Gatan, Pleasanton, Calif.) and imaged with a FEI Tecnai G2 Twin TEM (FEI, Eindhoven, Netherlands), operating at 80 keV. Feature sizes and spacing distances were measured in ImageJ by manual measurement of at least 25 particles.

[2] = Static and dynamic light scattering (SLS/DLS) of block co-polypeptides; format: physicochemical; conditions: for Nagg / Rg(nm) / Rh (nm): 10 μM in PBS, 15 °C; for ρ: shape factor Rg/Rh
Experimental: Key parameters of interest are the hydrophilicity of the corona-forming block, the hydrophilicity of the core block, the overall length of the co-polypeptide and the ratio of the two blocks. Parameters of evaluation are the size, morphology, stability, and thermoresponsive behavior. All measurements were made in 140 mM NaCl, 10 mM phosphate buffer, 3 mM KCl, pH 7.4 unless otherwise specified. Size was evaluated by the hydrodynamic radios (Rh) and radius of gyration (Rg) by dynamic light scattering (DLS) and static light scattering (SLS) respectively. Rg and Rh can be combined to yield the shape factor ρ=Rg/Rh, which provides a rough indication of the morphology of the scatterer. […] For an elongated scatterer, the shape factor depends upon the aspect ratio. A combination of temperature dependent turbidity and DLS was utilized to determine the phase behavior of the block co-polypeptides. Cryogenic transmission electron microscopy (Cryo-TEM) was utilized to evaluate the morphology and provide crucial insight into the hydration of the core/corona chains. Stability of the assembled nanostructure was determined by a shift in the I1/I3 fluorescent bands of pyrene as described previously.
Static and dynamic light scattering measurements (SLS/DLS) were performed using an ALV/CGS-3 goniometer system (Langen, Germany). Samples for the ALV/CGS-3 goniometer system were prepared at a concentration of 10 μM in PBS and filtered through 0.45 μm Millex-GV filters into a 10 mm disposable borosilicate glass tube (Fischer). Simultaneous SLS and DLS measurements were obtained at 15° C. of the ELP for angles between 30°-150° at 5° increments, with each angle consisting of 3 runs for 15 s. SLS experiments were only conducted for self-assembling block co-polypeptides, since the molecular weight of a single block co-polypeptide chain is already known, and the Rg of a single chain is likely near or below the detection limit of the SLS instrument. The differential refractive index (dn/dc) was determined by measuring the refractive index at different concentrations using an Abbemat 500 refractometer (Anton Paar, Graz, Austria). DLS data were analyzed by fitting the autocorrelation function with a cumulant fit, using the built-in ALV software. Hydrodynamic radius (Rh) was plotted against angle and extrapolated to zero. SLS data were analyzed by partial Zimm plots using ALVSTAT software in order to determine the Rg and molecular weight (MW).

Row | Molecule | Spacing (nm) ([1]; Table 4) | Core radius (nm) ([1]; Table 4) | hydrodynamic radius (Rh) [2] [nm] | radius of gyration (Rg) [2] [nm] | shape factor / form factor (Rg/Rh) [2] | Nagg ([2]; Table 3) | Rg(nm) ([2]; Table 3) | Rh (nm) ([2]; Table 3) | ρ ([2]; Table 3) | core radius (cryo-TEM) [1] [nm] | spacing between particle cores (cryo-TEM) [1] [nm] | Spacing (nm) ([1]; Table 6) | Core radius (nm) ([1]; Table 6) | Nagg ([2]; Table 5) | Rg(nm) ([2]; Table 5) | Rh (nm) ([2]; Table 5) | ρ ([2]; Table 5)
1 | RLP80-ELP160: RLP-ELP block co-polypeptide, 80 core and 160 corona repeats (protein) QYPSDGRGQYPSDGRGQYPSDGRGQYPSDGRGQYPSDGRGQYPSDGRGQYPSDGRGQYPSDGRGQYPSDGRGQYPSDGRGQYPSDGRGQYPSDGRGQYPSDGRGQYPSDGRGQYPSDGRGQYPSDGRGQYPSDGRGQYPSDGRGQYPSDGRGQYPSDGRGQYPSDGRGQYPSDGRGQYPSDGRGQYPSDGRGQYPSDGRGQYPSDGRGQYPSDGRGQYPSDGRGQYPSDGRGQYPSDGRGQYPSDGRGQYPSDGRGQYPSDGRGQYPSDGRGQYPSDGRGQYPSDGRGQYPSDGRGQYPSDGRGQYPSDGRGQYPSDGRGQYPSDGRGQYPSDGRGQYPSDGRGQYPSDGRGQYPSDGRGQYPSDGRGQYPSDGRGQYPSDGRGQYPSDGRGQYPSDGRGQYPSDGRGQYPSDGRGQYPSDGRGQYPSDGRGQYPSDGRGQYPSDGRGQYPSDGRGQYPSDGRGQYPSDGRGQYPSDGRGQYPSDGRGQYPSDGRGQYPSDGRGQYPSDGRGQYPSDGRGQYPSDGRGQYPSDGRGQYPSDGRGQYPSDGRGQYPSDGRGQYPSDGRGQYPSDGRGQYPSDGRGQYPSDGRGQYPSDGRGQYPSDGRGQYPSDGRGQYPSDGRGQYPSDGRGQYPSDGRGGAGVPGGGVPGAGVPGGGVPGAGVPGGGVPGAGVPGGGVPGAGVPGGGVPGAGVPGGGVPGAGVPGGGVPGAGVPGGGVPGAGVPGGGVPGAGVPGGGVPGAGVPGGGVPGAGVPGGGVPGAGVPGGGVPGAGVPGGGVPGAGVPGGGVPGAGVPGGGVPGAGVPGGGVPGAGVPGGGVPGAGVPGGGVPGAGVPGGGVPGAGVPGGGVPGAGVPGGGVPGAGVPGGGVPGAGVPGGGVPGAGVPGGGVPGAGVPGGGVPGAGVPGGGVPGAGVPGGGVPGAGVPGGGVPGAGVPGGGVPGAGVPGGGVPGAGVPGGGVPGAGVPGGGVPGAGVPGGGVPGAGVPGGGVPGAGVPGGGVPGAGVPGGGVPGAGVPGGGVPGAGVPGGGVPGAGVPGGGVPGAGVPGGGVPGAGVPGGGVPGAGVPGGGVPGAGVPGGGVPGAGVPGGGVPGAGVPGGGVPGAGVPGGGVPGAGVPGGGVPGAGVPGGGVPGAGVPGGGVPGAGVPGGGVPGAGVPGGGVPGAGVPGGGVPGAGVPGGGVPGAGVPGGGVPGAGVPGGGVPGAGVPGGGVPGAGVPGGGVPGAGVPGGGVPGAGVPGGGVPGAGVPGGGVPGAGVPGGGVPGAGVPGGGVPGAGVPGGGVPGAGVPGGGVPGAGVPGGGVPGAGVPGGGVPGAGVPGGGVPGAGVPGGGVPGAGVPGGGVPGAGVPGGGVPGAGVPGGGVPGAGVPGGGVPGAGVPGGGVPGAGVPGGGVPGAGVPGGGVPGAGVPGGGVPGAGVPGGGVPGAGVPGGGVPGAGVPGGGVP | 59.0 ± 13.2 | 29.3 ± 4.5 | 93.3 | 78.2 | 0.8 | 1728 | 78.2 | 93.5 | 0.84 |  |  |  |  |  |  |  | 
2 | RLP40-ELP40: RLP-ELP block co-polypeptide, 40 core and 40 corona repeats (protein) QYPSDGRGQYPSDGRGQYPSDGRGQYPSDGRGQYPSDGRGQYPSDGRGQYPSDGRGQYPSDGRGQYPSDGRGQYPSDGRGQYPSDGRGQYPSDGRGQYPSDGRGQYPSDGRGQYPSDGRGQYPSDGRGQYPSDGRGQYPSDGRGQYPSDGRGQYPSDGRGQYPSDGRGQYPSDGRGQYPSDGRGQYPSDGRGQYPSDGRGQYPSDGRGQYPSDGRGQYPSDGRGQYPSDGRGQYPSDGRGQYPSDGRGQYPSDGRGQYPSDGRGQYPSDGRGQYPSDGRGQYPSDGRGQYPSDGRGQYPSDGRGQYPSDGRGQYPSDGRGGAGVPGGGVPGAGVPGGGVPGAGVPGGGVPGAGVPGGGVPGAGVPGGGVPGAGVPGGGVPGAGVPGGGVPGAGVPGGGVPGAGVPGGGVPGAGVPGGGVPGAGVPGGGVPGAGVPGGGVPGAGVPGGGVPGAGVPGGGVPGAGVPGGGVPGAGVPGGGVPGAGVPGGGVPGAGVPGGGVPGAGVPGGGVPGAGVPGGGVP | 19.5 ± 4.3 | 11.8 ± 1.6 | 52.6 | 56.2 | greater than 1 | 91 | 56.2 | 52.6 | 1.13 | 11.8 | 19.5 |  |  |  |  |  | 
3 | RLP40-ELPV80: RLP-ELP block co-polypeptide with Val guest residue in the corona (protein) QYPSDGRGQYPSDGRGQYPSDGRGQYPSDGRGQYPSDGRGQYPSDGRGQYPSDGRGQYPSDGRGQYPSDGRGQYPSDGRGQYPSDGRGQYPSDGRGQYPSDGRGQYPSDGRGQYPSDGRGQYPSDGRGQYPSDGRGQYPSDGRGQYPSDGRGQYPSDGRGQYPSDGRGQYPSDGRGQYPSDGRGQYPSDGRGQYPSDGRGQYPSDGRGQYPSDGRGQYPSDGRGQYPSDGRGQYPSDGRGQYPSDGRGQYPSDGRGQYPSDGRGQYPSDGRGQYPSDGRGQYPSDGRGQYPSDGRGQYPSDGRGQYPSDGRGQYPSDGRGGVGVPGVGVPGVGVPGVGVPGVGVPGVGVPGVGVPGVGVPGVGVPGVGVPGVGVPGVGVPGVGVPGVGVPGVGVPGVGVPGVGVPGVGVPGVGVPGVGVPGVGVPGVGVPGVGVPGVGVPGVGVPGVGVPGVGVPGVGVPGVGVPGVGVPGVGVPGVGVPGVGVPGVGVPGVGVPGVGVPGVGVPGVGVPGVGVPGVGVPGVGVPGVGVPGVGVPGVGVPGVGVPGVGVPGVGVPGVGVPGVGVPGVGVPGVGVPGVGVPGVGVPGVGVPGVGVPGVGVPGVGVPGVGVPGVGVPGVGVPGVGVPGVGVPGVGVPGVGVPGVGVPGVGVPGVGVPGVGVPGVGVPGVGVPGVGVPGVGVPGVGVPGVGVPGVGVPGVGVPGVGVPGVGVPGVGVPGVGVP |  |  |  |  | > 1 |  |  |  |  |  |  | 19.4 ± 4.4 | 14.5 ± 3.6 | 213 | 33.1 | 31.7 | 1.04
4 | RLP40-ELP160: RLP-ELP block co-polypeptide, 40 core and 160 corona repeats (protein) QYPSDGRGQYPSDGRGQYPSDGRGQYPSDGRGQYPSDGRGQYPSDGRGQYPSDGRGQYPSDGRGQYPSDGRGQYPSDGRGQYPSDGRGQYPSDGRGQYPSDGRGQYPSDGRGQYPSDGRGQYPSDGRGQYPSDGRGQYPSDGRGQYPSDGRGQYPSDGRGQYPSDGRGQYPSDGRGQYPSDGRGQYPSDGRGQYPSDGRGQYPSDGRGQYPSDGRGQYPSDGRGQYPSDGRGQYPSDGRGQYPSDGRGQYPSDGRGQYPSDGRGQYPSDGRGQYPSDGRGQYPSDGRGQYPSDGRGQYPSDGRGQYPSDGRGQYPSDGRGGAGVPGGGVPGAGVPGGGVPGAGVPGGGVPGAGVPGGGVPGAGVPGGGVPGAGVPGGGVPGAGVPGGGVPGAGVPGGGVPGAGVPGGGVPGAGVPGGGVPGAGVPGGGVPGAGVPGGGVPGAGVPGGGVPGAGVPGGGVPGAGVPGGGVPGAGVPGGGVPGAGVPGGGVPGAGVPGGGVPGAGVPGGGVPGAGVPGGGVPGAGVPGGGVPGAGVPGGGVPGAGVPGGGVPGAGVPGGGVPGAGVPGGGVPGAGVPGGGVPGAGVPGGGVPGAGVPGGGVPGAGVPGGGVPGAGVPGGGVPGAGVPGGGVPGAGVPGGGVPGAGVPGGGVPGAGVPGGGVPGAGVPGGGVPGAGVPGGGVPGAGVPGGGVPGAGVPGGGVPGAGVPGGGVPGAGVPGGGVPGAGVPGGGVPGAGVPGGGVPGAGVPGGGVPGAGVPGGGVPGAGVPGGGVPGAGVPGGGVPGAGVPGGGVPGAGVPGGGVPGAGVPGGGVPGAGVPGGGVPGAGVPGGGVPGAGVPGGGVPGAGVPGGGVPGAGVPGGGVPGAGVPGGGVPGAGVPGGGVPGAGVPGGGVPGAGVPGGGVPGAGVPGGGVPGAGVPGGGVPGAGVPGGGVPGAGVPGGGVPGAGVPGGGVPGAGVPGGGVPGAGVPGGGVPGAGVPGGGVPGAGVPGGGVPGAGVPGGGVPGAGVPGGGVPGAGVPGGGVPGAGVPGGGVPGAGVPGGGVPGAGVPGGGVPGAGVPGGGVPGAGVPGGGVPGAGVPGGGVPGAGVPGGGVPGAGVPGGGVPGAGVPGGGVPGAGVPGGGVP | 22.3 ± 5.2 | 11.0 ± 1.6 | 92.3 | 70.8 | 0.8 | 246 | 70.8 | 92.3 | 0.8 | 11.0 | 22.3 |  |  |  |  |  | 
